Earlier results in publication PMC5519984.
Where two headings read alike, the source gives them in different places.

What was measured:
Ras (Homo sapiens) [1] = target: Ras (Homo sapiens) (UniProt P01112)
Ras (Homo sapiens) [2] = target: Ras (Homo sapiens) (UniProt P01112); remark: listed apart in the source

Kd (Ras (Homo sapiens) [1]): 158 µM
Kd (Ras (Homo sapiens) [2]): 28 µM
Substance: HBS3 929-944 (from UniProt Q07889)
